The target of assay [1] is T1, CM4.
T1 sequence (peptide): MVVLALTASG
The experiment in a line: cell-based or functional assay.

For assay [2], the target named is T2, CM1.
T2 sequence (peptide): MVPSALTASG
The experiment in a line: cell-based or functional assay.

Sequence of recombinant human MMP2 (P08253 110-660 limits assumed): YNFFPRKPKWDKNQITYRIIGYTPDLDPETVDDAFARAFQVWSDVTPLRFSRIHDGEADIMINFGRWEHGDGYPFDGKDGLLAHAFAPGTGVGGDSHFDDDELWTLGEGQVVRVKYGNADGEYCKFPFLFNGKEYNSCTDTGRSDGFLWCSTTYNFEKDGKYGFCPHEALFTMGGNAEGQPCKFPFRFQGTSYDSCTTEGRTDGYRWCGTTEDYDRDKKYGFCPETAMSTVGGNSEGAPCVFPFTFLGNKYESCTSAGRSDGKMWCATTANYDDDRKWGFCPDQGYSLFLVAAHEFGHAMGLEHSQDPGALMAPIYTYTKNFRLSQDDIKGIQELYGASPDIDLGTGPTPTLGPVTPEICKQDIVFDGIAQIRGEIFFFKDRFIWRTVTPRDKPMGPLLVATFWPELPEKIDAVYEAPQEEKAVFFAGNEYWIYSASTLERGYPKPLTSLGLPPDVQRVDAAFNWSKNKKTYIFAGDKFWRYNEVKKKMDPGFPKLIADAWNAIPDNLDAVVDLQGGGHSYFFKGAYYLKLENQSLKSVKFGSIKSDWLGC

With “recombinant human MMP9 (from UniProt P14780 107-707) (enzyme)”, the Cleavage efficiency (EC50) in assay [1] was determined as 0.2 µg/mL; in assay [2], 0.05 µg/mL.

On to “recombinant human MMP2 (from UniProt P08253 110-660) (enzyme)”, for which the Cleavage efficiency (EC50) turned out to be 0.15 µg/mL in assay [1] and 0.006 µg/mL in assay [2].

The record behind these values is patent US20260035426A1.
